One block for each molecule: values may come before it.
How the values were obtained:
[1] = target: F-actin (rabbit skeletal actin) (rabbit) (UniProt P68135)
[2] = target: T1, wildtype myosin regulatory light chain (WT-RLC), unlabeled recombinant (human, UniProt P10916 1-166); assay: other fluorescence titration
T1 sequence (looked up): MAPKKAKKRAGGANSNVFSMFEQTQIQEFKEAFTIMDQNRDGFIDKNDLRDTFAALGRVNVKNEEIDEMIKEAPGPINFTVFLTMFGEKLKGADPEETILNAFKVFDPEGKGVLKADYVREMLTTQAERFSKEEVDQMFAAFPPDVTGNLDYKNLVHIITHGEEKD

[3] = target: RLC-depleted isolated porcine β-cardiac myosin (porcine) (UniProt P79293); assay: reconstitution of RLC-depleted myosin, SDS-PAGE densitometry
[4] = target: cardiac myosin binding protein-C fragment spanning domains C0 to C2 (C0C2) (UniProt Q14896 1-452); assay: MST
Chain of cardiac myosin binding protein-C fragment spanning domains C0 to C2 (C0C2) (Q14896 1-452): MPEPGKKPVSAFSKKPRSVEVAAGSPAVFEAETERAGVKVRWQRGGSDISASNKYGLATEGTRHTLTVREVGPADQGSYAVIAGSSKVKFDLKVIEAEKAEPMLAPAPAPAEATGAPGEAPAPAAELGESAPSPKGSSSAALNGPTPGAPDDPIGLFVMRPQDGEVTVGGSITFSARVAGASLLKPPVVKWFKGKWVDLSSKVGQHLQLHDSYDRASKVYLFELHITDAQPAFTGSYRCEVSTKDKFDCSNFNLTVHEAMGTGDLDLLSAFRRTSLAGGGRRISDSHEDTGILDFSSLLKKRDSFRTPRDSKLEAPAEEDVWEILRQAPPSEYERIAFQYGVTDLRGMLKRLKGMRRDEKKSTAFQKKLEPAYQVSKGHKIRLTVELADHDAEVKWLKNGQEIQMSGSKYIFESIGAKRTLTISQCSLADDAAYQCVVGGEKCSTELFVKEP

Molecule: ERRDSLLVIQWNIRAFMGVKNWPWMKLYFKIK [RLC binding site peptide of the human β-cardiac myosin heavy chain (amino acids 805–837)]
Kd [2]: < 0.5 µM

B3: Alexa 647 labelled R58Q-RLC (natural protein, human, UniProt P10916 1-166, looked up)
chain: MAPKKAKKRAGGANSNVFSMFEQTQIQEFKEAFTIMDQNRDGFIDKNDLRDTFAALGQVNVKNEEIDEMIKEAPGPINFTVFLTMFGEKLKGADPEETILNAFKVFDPEGKGVLKADYVREMLTTQAERFSKEEVDQMFAAFPPDVTGNLDYKNLVHIITHGEEKD
modifications: Alexa 647 (labelled with Alexa 647-NHS; site not stated)
Kd [4]: 9.7 µM

B4: Alexa 647 labelled WT-RLC (natural protein, human, UniProt P10916 1-166, looked up)
chain: MAPKKAKKRAGGANSNVFSMFEQTQIQEFKEAFTIMDQNRDGFIDKNDLRDTFAALGRVNVKNEEIDEMIKEAPGPINFTVFLTMFGEKLKGADPEETILNAFKVFDPEGKGVLKADYVREMLTTQAERFSKEEVDQMFAAFPPDVTGNLDYKNLVHIITHGEEKD
modifications: Alexa 647 (labelled with Alexa 647-NHS; site not stated)
Kd [4]: 8.6 µM

Other lines, results leading:

KM for F-actin of the F-actin activated myosin ATPase (Michaelis-Menten fit) [1]: 2.91 µM
Molecule: porcine β-cardiac myosin fully reconstituted with R58Q-RLC (from UniProt P79293 1-1935; P10916 1-166) (complex)

KM for F-actin of the F-actin activated myosin ATPase (Michaelis-Menten fit) [1]: 1.5 µM
Molecule: porcine β-cardiac myosin fully reconstituted with WT-RLC (from UniProt P79293 1-1935; P10916 1-166) (complex)

Kd [3]: 4 µM
B1: wildtype myosin regulatory light chain (WT-RLC), unlabeled recombinant (natural protein)
chain: MAPKKAKKRAGGANSNVFSMFEQTQIQEFKEAFTIMDQNRDGFIDKNDLRDTFAALGRVNVKNEEIDEMIKEAPGPINFTVFLTMFGEKLKGADPEETILNAFKVFDPEGKGVLKADYVREMLTTQAERFSKEEVDQMFAAFPPDVTGNLDYKNLVHIITHGEEKD

Kd [3]: 4 µM
B2: myosin regulatory light chain with the hypertrophic cardiomyopathy mutation R58Q (R58Q-RLC), unlabeled recombinant (natural protein)
chain: MAPKKAKKRAGGANSNVFSMFEQTQIQEFKEAFTIMDQNRDGFIDKNDLRDTFAALGQVNVKNEEIDEMIKEAPGPINFTVFLTMFGEKLKGADPEETILNAFKVFDPEGKGVLKADYVREMLTTQAERFSKEEVDQMFAAFPPDVTGNLDYKNLVHIITHGEEKD
